Source: US20120189542A1 (published 2012)

Biological target: T1, human CD19 on CD19+ human lymphoma cells (Raji, Daudi, Ramos) (human, UniProt P15391 20-556)
T1 construct: whole, on cells; The target is presented on cells; also called CD19 antigen; CD19 molecule
T1 sequence (looked up): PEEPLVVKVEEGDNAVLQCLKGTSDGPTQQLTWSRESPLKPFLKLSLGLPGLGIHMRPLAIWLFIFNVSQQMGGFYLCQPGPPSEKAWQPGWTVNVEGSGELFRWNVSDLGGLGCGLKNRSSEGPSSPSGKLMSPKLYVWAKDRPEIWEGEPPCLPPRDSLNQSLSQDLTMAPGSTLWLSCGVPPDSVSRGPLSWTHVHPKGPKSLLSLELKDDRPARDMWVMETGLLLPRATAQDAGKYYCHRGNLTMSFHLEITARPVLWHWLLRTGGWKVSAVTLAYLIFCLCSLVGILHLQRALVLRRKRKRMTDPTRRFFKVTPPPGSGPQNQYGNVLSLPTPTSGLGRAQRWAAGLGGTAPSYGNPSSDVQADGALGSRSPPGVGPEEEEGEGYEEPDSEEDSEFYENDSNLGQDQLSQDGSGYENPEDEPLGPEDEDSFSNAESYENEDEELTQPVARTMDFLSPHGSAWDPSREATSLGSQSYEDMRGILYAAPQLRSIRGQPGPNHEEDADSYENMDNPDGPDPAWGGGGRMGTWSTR
Assay: direct cell surface binding of 125I-labeled antibody to Raji cells, Scatchard plot analysis

Kd: 1.1 nM
B1: humanized anti-CD19 antibody hA19 (antibody, V domains shown)
VH: QVQLQQSGAEVKKPGSSVKVSCKASGYAFSSYWMNWVRQRPGQGLEWIGQIWPGDGDTNYNGKFKGRATITADESTNTAYMELSSLRSEDTAFYSCARRETTTVGRYYYAMDYWGQGTTVTVSS
VL: DIQLTQSPSSLSASVGDRVTITCKASQSVDYDGDSYLNWYQQIPGKAPKLLIYDASNLVSGIPPRFSGSGSGTDYTFTISSLQPEDIATYHCQQSTEDPWTFGGGTKLQIKR
notes: It was expressed from pdHL2, which carries human IgG heavy and light chain constant regions (IgG1 per the general description); also called humanized A19 antibody
